Measured values from patent US7205275 (dated 2007).
Primed or numbered codes have the meaning given here. Where no end group is shown, it is not given here. [ ]: non-standard residue; d: D form. Fc(4) = non-antigen-binding fragment of an antibody (from proteolytic digestion of a whole antibody); Fc = immunoglobulin Fc domain fused to the peptide (peptibody); Fc(7) = Fc domain, peptide fused N- or C-terminal to it

Target: T1, human Ang-2 (human, UniProt O15123)
T1 chain: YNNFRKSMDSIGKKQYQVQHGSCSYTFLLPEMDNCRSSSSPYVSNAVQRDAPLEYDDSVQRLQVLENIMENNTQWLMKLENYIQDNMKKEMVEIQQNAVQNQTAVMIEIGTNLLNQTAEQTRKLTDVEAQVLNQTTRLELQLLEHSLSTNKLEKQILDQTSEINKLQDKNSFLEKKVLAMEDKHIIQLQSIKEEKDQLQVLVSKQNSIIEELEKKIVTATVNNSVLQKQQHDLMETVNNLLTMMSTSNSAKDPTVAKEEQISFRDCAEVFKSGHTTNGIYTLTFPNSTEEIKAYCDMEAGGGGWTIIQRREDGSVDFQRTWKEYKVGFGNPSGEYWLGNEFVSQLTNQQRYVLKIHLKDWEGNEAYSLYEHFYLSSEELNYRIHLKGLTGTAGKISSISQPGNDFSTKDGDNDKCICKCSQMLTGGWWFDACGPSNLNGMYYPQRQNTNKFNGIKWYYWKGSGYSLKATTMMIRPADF
Assay: competition ELISA vs Tie-2

| Binder | IC50 |
| --- | --- |
| M[Fc(7)]GGGGGAQVLGGQGCQWDPWTCSHLEDGLE (not fully specified (bridges); cysteine pairing not given here) [Con4-1 (C)] | 2.47 nM |
| M[Fc(4)]GGGGGAQAATQEECEWDPWTCEHMPRSLE (not fully specified (bridges); cysteine pairing not given here) [Con4-C5 (C)] | 0.16 nM |
| M[Fc(4)]GGGGGAQSTIGDMCEWDPWTCAHMQVDLE (not fully specified; cysteine pairing not given here) [Con4-8 (C)] | 1.2 nM |
| M[Fc(7)]GGGGGAQDKILEECQWDPWTCQFFYGALE (not fully specified (bridges); cysteine pairing not given here) [Con4-3 (C)] | 282 nM |
| M[Fc]GGGGGAQPRLQEECVWDPWTCEHMPLRLE (not fully specified; cysteine pairing not given here) [Con4-38 (C)] | 0.4 nM |
| M[Fc(7)]GGGGGAQTQLVSLCEWDPWTCRLLDGWLE (not fully specified (bridges); cysteine pairing not given here) [Con4-12 (C)] | > 1000 nM |
| M[Fc(7)]GGGGGAQVVQVGMCQWDPWTCKHMRLQLE (not fully specified (bridges); cysteine pairing not given here) [Con4-19 (C)] | 5.76 nM |
| M[Fc(4)]GGGGGAQTTIGSMCQWDPWTCEHMQGGLE (not fully specified (bridges); cysteine pairing not given here) [Con4-C4 (C)] | 9.8 nM |
| M[Fc(7)]GGGGGAQAATQEECEWDPWTCRLLQGWLE (not fully specified (bridges); cysteine pairing not given here) [AC5-Con4 (C)] | > 1000 nM |
| M[Fc(7)]GGGGGAQQWSWPPCEWDPWTCQTVWPSLE (not fully specified (bridges); cysteine pairing not given here) [Con4-15 (C)] | 15 nM |
| M[Fc(4)]GGGGGAQLWQLAVCQWDPQTCDHMGALLE (not fully specified; cysteine pairing not given here) [Con4-7 (C)] | > 1000 nM |
| M[Fc(7)]GGGGGAQTWPQDKCEWDPWTCRLLQGWLE (not fully specified (bridges); cysteine pairing not given here) [AC1-Con4 (C)] | > 1000 nM |
| M[Fc(7)]GGGGGAQQVIGRPCEWDPWTCEHLEGLLE (not fully specified (bridges); cysteine pairing not given here) [Con4-20 (C)] | 0.48 nM |
| M[Fc(4)]GGGGGAQTTIGSMCQWDPWTCAHMQGGLE (not fully specified (bridges); cysteine pairing not given here) [Con4-C2 (C)] | 3.75 nM |
| M[Fc]GGGGGAQKSTQDDCDWDPWTCEHMVGPLE (not fully specified; cysteine pairing not given here) [Con4-32 (C)] | 0.75 nM |
| M[Fc(4)]GGGGGAQGHSQEECGWDPWTCEHMGTSLE (not fully specified; cysteine pairing not given here) [Con4-48 (C)] | 0.26 nM |
| M[Fc(4)]GGGGGAQWPQTEGCQWDPWTCRLLHGWLE (not fully specified; cysteine pairing not given here) [Con4-6 (C)] | > 1000 nM |
| M[Fc(7)]GGGGGAQVWRSQVCQWDPWTCNLGGDWLE (not fully specified (bridges); cysteine pairing not given here) [Con4-22 (C)] | 150 nM |
| M[Fc(4)]GGGGGAQHGQNMECEWDPWTCEHMFRYLE (not fully specified; cysteine pairing not given here) [Con4-50 (C)] | 0.38 nM |

| Binder | IC50 |
| --- | --- |
| M[Fc(7)]GGGGGAQAWGQEGCDWDPWTCEHMLPMLE (not fully specified (bridges); cysteine pairing not given here) [Con4-28 (C)] | 0.3 nM |
| M[Fc]GGGGGAQKSGQVECNWDPWTCEHMPRNLE (not fully specified; cysteine pairing not given here) [Con4-36 (C)] | 0.28 nM |
| M[Fc(7)]GGGGGAQTWPQDKCEWDPWTCEHMGSTLE (not fully specified (bridges); cysteine pairing not given here) [Con4-27 (C)] | 0.22 nM |
| M[Fc(7)]GGGGGAQGPAQEECEWDPWTCEPLPLMLE (not fully specified (bridges); cysteine pairing not given here) [Con4-30 (C)] | > 1000 nM |
| M[Fc(4)]GGGGGAQGTSPSFCQWDPWTCSHMVQGLE (not fully specified; cysteine pairing not given here) [Con4-9 (C)] | 20.1 nM |
| M[Fc(7)]GGGGGAQRTTQEKCEWDPWTCEHMESQLE (not fully specified (bridges); cysteine pairing not given here) [Con4-29 (C)] | 0.41 nM |
| M[Fc(7)]GGGGGAQPDTRQGCQWDPWTCRLYGMWLE (not fully specified (bridges); cysteine pairing not given here) [Con4-24 (C)] | > 1000 nM |
| M[Fc(7)]GGGGGAQDKILEECEWDPWTCRLLQGWLE (not fully specified (bridges); cysteine pairing not given here) [AC3-Con4 (C)] | > 1000 nM |
| M[Fc(4)]GGGGGAQNVRQEKCEWDPWTCEHMPVRLE (not fully specified; cysteine pairing not given here) [Con4-41 (C)] | 0.26 nM |
| M[Fc(7)]GGGGGAQQGMKMFCEWDPWTCAHIVYRLE (not fully specified (bridges); cysteine pairing not given here) [Con4-11 (C)] | 9.7 nM |
| M[Fc]GGGGGAQPMNQVECDWDPWTCEHMPRSLE (not fully specified; cysteine pairing not given here) [Con4-33 (C)] | 0.52 nM |
| M[Fc(7)]GGGGGAQFGWSHGCEWDPWTCRLLQGWLE (not fully specified (bridges); cysteine pairing not given here) [Con4-2 (C)] | > 1000 nM |
| M[Fc]GGGGGAQWYEQDACEWDPWTCEHMAEVLE (not fully specified; cysteine pairing not given here) [Con4-4 (C)] | 0.12 nM |
| M[Fc(4)]GGGGGAQATFARQCQWDPWTCALGGNWLE (not fully specified; cysteine pairing not given here) [Con4-5 (C)] | > 1000 nM |
| M[Fc(7)]GGGGGAQWVNEVVCEWDPWTCNHWDTPLE (not fully specified (bridges); cysteine pairing not given here) [Con4-18 (C)] | 4.8 nM |
| M[Fc]GGGGGAQVKTQEHCDWDPWTCEHMREWLE (not fully specified; cysteine pairing not given here) [Con4-34 (C)] | 0.28 nM |
| M[Fc]GGGGGAQVPRQKDCEWDPWTCEHMYVGLE (not fully specified; cysteine pairing not given here) [Con4-35 (C)] | 0.18 nM |
| M[Fc(4)]GGGGGAQWAAQEECEWDPWTCEHMGRMLE (not fully specified; cysteine pairing not given here) [Con4-49 (C)] | 0.19 nM |
